Test results taken from article PMC3406929.

Target: 1JO8-ZM109 (V1/V2 of HIV-1 strain ZM109 in the 1JO8 scaffold) (not stated | HIV-1 strain ZM109)

B1: antibody PG9 (antibody, V domains shown)
VH: QRLVESGGGVVQPGSSLRLSCAASGFDFSRQGMHWVRQAPGQGLEWVAFIKYDGSEKYHADSVWGRLSISRDNSKDTLYLQMNSLRVEDTATYFCVREAGGPDYRNGYNYYDFYDGYYNYHYMDVWGKGTTVTVSS
VL: QSALTQPASVSGSPGQSITISCNGTSNDVGGYESVSWYQQHPGKAPKVVIYDVSKRPSGVSNRFSGSKSGNTASLTISGLQAEDEGDYYCKSLTSTRRRVFGTGTKLTVL
B1 gave a fold lower affinity than for wild-type ZM109 gp120 of 3 fold.
